Target: lysozyme (chicken (hen egg white), UniProt P00698 19-147)
Experiment: visible aggregation assay (photograph texture); 3 ul of 25 nM aptamer + 10 ul of lysozyme; indirect read-out, lysozyme alone gave no aggregate; lysozyme in ultrapure water, no buffer or salt stated; 25 nM aptamer (3 ul) heated at 70 C for 3 min before use; 20 C, 70-90% relative humidity, about 1 min on
Settings: protein: commercial; 3' hairpin (predicted only)

lysozyme, sequence (P00698 19-147): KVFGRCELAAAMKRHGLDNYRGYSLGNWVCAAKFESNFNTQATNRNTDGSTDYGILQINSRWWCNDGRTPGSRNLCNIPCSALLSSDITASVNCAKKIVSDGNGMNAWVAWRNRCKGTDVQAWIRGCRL

## ATCTACGAATTCATCAGGGCTAAAGAGTGCAGAGTTACTTAG (ssDNA) [anti-Lys aptamer (Ellington)]
  binding result: binds

— PMC7939288, “An apta-aggregation based machine learning assay for rapid quantification of lysozyme through texture parameters”
